Results as given in the supplement of paper PMC7877785.
± gives the uncertainty stated by the source.

Test: self-splicing fitness, log relative to wild type (ln ratio); higher = more splicing; Tetrahymena group I intron in knt gene, E. coli kanamycin selection, DiMSum; sequences stand for … in CUCUCU…GGAGGGAAAAGUUAUCAGGCAUGCACCUGGUAGCUAGUCUUUAAACCAAUAGAUUGCAUCGGUUUAAAAGGCAAGACCGUCAAAUUGCGGGAAAGGGGUCAACAGCCGUUCAGUACCAAGUCUCAGGGGAAACUUUGAGAUGGCCUUGCAAAGGGUAUGGUAAUAAGCUGACGGACAUGGUCCUAACCACGCAGCCAAGUCCUAAGUCAACAGAUCUUCUGUUGAUAUGGAUGCAGUUCACAGACUAAAUGUCGGUCGGGGAAGAUGUAUUCUUCUCAUAAGAUAUAGUCGGACCUCUCCUUAAUGGGAGCUAGCGGAUGAAGUGAUGCAACACUGGAGCCGCUGGGAACUAAUUUGUAUGCGAAAGUAUAUUGAUUAGUUUUGGAGUACUCGUGGUCG
How it was run: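 A randomised library covering all eight P1ex-region intron nucleotides was built with the intron in the knt kanamycin-resistance gene on pET-22b(+) and held in E. coli BL21(DE3). Cells were grown overnight at 37°C or 30°C on LB agar, with or without 25 μg/mL kanamycin, plus 100 μg/mL carbenicillin, 50 μM IPTG and 0.2% rhamnose, and pooled colonies were amplicon-sequenced on an Illumina HiSeq 2500. DiMSum fitness is the error-weighted combination of wild-type-normalised replicate fold changes, kanamycin versus none.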

Sequence | self-splicing fitness (ln) (30 °C) | self-splicing fitness (ln) (37 °C)
UGCAAGCAAUAUUACGCAGU | -3.63 ± 0.3 | -3.35 ± 0.39
GUUUAGCAAUAUUACGUUGA | -3.52 ± 0.43 | -2 ± 0.26
UCAGAGCAAUAUUACGACUC | -2.63 ± 0.22 | -2.31 ± 0.26
CGAAAGCAAUAUUACGCGCU | -2.08 ± 0.13 | -1.6 ± 0.12
ACAGAGCAAUAUUACGAACC |  | -1.67 ± 0.49
CCAUAGCAAUAUUACGAACC | -1.85 ± 0.5 | 
GAACAGCAAUAUUACGGAAG | -3.32 ± 0.14 | -1.73 ± 0.16
CAAUAGCAAUAUUACGUUCA | -3.43 ± 0.25 | -2.59 ± 0.24
ACGCAGCAAUAUUACGAAGC | -3.38 ± 0.24 | -1.6 ± 0.28
UGGCAGCAAUAUUACGUAGC | -4.18 ± 0.29 | -2.28 ± 0.19
GUUAAGCAAUAUUACGUCGG | -2.75 ± 0.2 | -2.55 ± 0.25
UAAUAGCAAUAUUACGAGUA | -2.31 ± 0.14 | -0.79 ± 0.11
UGAAAGCAAUAUUACGUGAC | -3.86 ± 0.29 | -2.01 ± 0.17
GCCAAGCAAUAUUACGCGCA | -0.985 ± 0.12 | 0.097 ± 0.11
AGGAAGCAAUAUUACGGAGU | -2.89 ± 0.17 | -1.7 ± 0.22
AUCAAGCAAUAUUACGUGGG | -3.29 ± 0.14 | -2.04 ± 0.11
GUAAAGCAAUAUUACGGGUG | -1.6 ± 0.065 | -0.848 ± 0.091
GAUUAGCAAUAUUACGUUAG | -2.09 ± 0.32 | -2.4 ± 0.45
UGUCAGCAAUAUUACGUCGU | -1.49 ± 0.1 | -0.759 ± 0.11
GUCGAGCAAUAUUACGAAUC | -1.52 ± 0.11 | -0.929 ± 0.15

Sequence | self-splicing fitness (ln) (30 °C) | self-splicing fitness (ln) (37 °C)
CCCCAGCAAUAUUACGAGUU | -4.17 ± 0.18 | -2.31 ± 0.17
GCCUAGCAAUAUUACGCCAG | -2.75 ± 0.27 | -2.67 ± 0.48
GCAAAGCAAUAUUACGUUAG | -3.02 ± 0.13 | -1.82 ± 0.14
UUUAAGCAAUAUUACGAUGA | 0.318 ± 0.13 | -0.175 ± 0.14
GACAAGCAAUAUUACGAGGA | -3.16 ± 0.21 | -2.42 ± 0.14
GCGAAGCAAUAUUACGAUUG | -2.92 ± 0.097 | -1.64 ± 0.096
CUUUAGCAAUAUUACGUUUU | -3.27 ± 0.3 | -2.39 ± 0.35
UUUGAGCAAUAUUACGAUGG | -2.08 ± 0.17 | -1.77 ± 0.2
AAUGAGCAAUAUUACGCCGG | -3.52 ± 0.47 | -2.35 ± 0.36
CGCAAGCAAUAUUACGGGCA | 0.0951 ± 0.064 | -0.199 ± 0.075
CUGCAGCAAUAUUACGAGCA | -3.11 ± 0.21 | -2.38 ± 0.22
AGUGAGCAAUAUUACGGGCG | -1.04 ± 0.19 | -0.922 ± 0.27
UUUUAGCAAUAUUACGAACU | -1.75 ± 0.34 | -0.164 ± 0.23
GUUAAGCAAUAUUACGCUGC | -3.43 ± 0.33 | -1.49 ± 0.32
CCCAAGCAAUAUUACGGCGG | -3.72 ± 0.23 | -2.08 ± 0.21
AAAAAGCAAUAUUACGGCUC | -0.28 ± 0.076 | 0.157 ± 0.098
CAUAAGCAAUAUUACGAUCA | -2.28 ± 0.21 | -1.87 ± 0.2
CGGCAGCAAUAUUACGGCCA | -0.0175 ± 0.12 | 0.462 ± 0.16
CUUGAGCAAUAUUACGGGUU | -2.91 ± 0.32 | -2.92 ± 0.28
ACGGAGCAAUAUUACGGAUA | -3.27 ± 0.33 | -2.61 ± 0.42

Sequence | self-splicing fitness (ln) (30 °C) | self-splicing fitness (ln) (37 °C)
GCAGAGCAAUAUUACGUAGC | -3.31 ± 0.25 | -2.77 ± 0.22
UUCCAGCAAUAUUACGCCUG | -3.5 ± 0.47 | -2.35 ± 0.39
ACAGAGCAAUAUUACGAUUA | -3.25 ± 0.23 | -2.38 ± 0.26
UAUGAGCAAUAUUACGAGCU | -2.71 ± 0.2 | -2.09 ± 0.42
GACCAGCAAUAUUACGCAAA | -1.75 ± 0.11 | -0.859 ± 0.1
GACUAGCAAUAUUACGGAAA | -1.53 ± 0.14 | -0.989 ± 0.14
GGACAGCAAUAUUACGCCUC | -0.953 ± 0.32 | -0.751 ± 0.3
AUGCAGCAAUAUUACGGCAG | -0.985 ± 0.11 | -1.29 ± 0.15
AGCCAGCAAUAUUACGCUAU | -1.55 ± 0.12 | -0.833 ± 0.13
UUCCAGCAAUAUUACGGGCC | -3.91 ± 0.3 | -2.34 ± 0.33
AAGGAGCAAUAUUACGAUUA |  | -1.96 ± 0.28
GACGAGCAAUAUUACGGCUG | -1.82 ± 0.13 | -1.13 ± 0.13
UACCAGCAAUAUUACGUGCG | -0.811 ± 0.044 | -0.367 ± 0.061
AAGGAGCAAUAUUACGUCCA | -1.29 ± 0.16 | -0.459 ± 0.16
UAGGAGCAAUAUUACGAGCG | -3.58 ± 0.4 | -1.31 ± 0.35
AAGUAGCAAUAUUACGUAUC | -2.36 ± 0.14 | -1.15 ± 0.11
UACCAGCAAUAUUACGCCCC | -2.68 ± 0.5 | -0.87 ± 0.4
GCAUAGCAAUAUUACGGGCG | -1.84 ± 0.12 | -1.09 ± 0.11
ACAGAGCAAUAUUACGUCGA | -3.1 ± 0.3 | -2.73 ± 0.34
AGCCAGCAAUAUUACGAACG | -3.24 ± 0.27 | -2.97 ± 0.37
